Assay [1] deals with human SOCS1 (residues 53-211) in complex with Elongins B and C (human) (UniProt O15524). The assay is described as follows: ITC. Background: Isothermal titration calorimetry measures the heat released or taken up as one component is titrated into another.
The target in assay [2] is human JAK1 kinase domain (human) (UniProt P23458).
UniProt P23458, sequence (P23458 869-1153): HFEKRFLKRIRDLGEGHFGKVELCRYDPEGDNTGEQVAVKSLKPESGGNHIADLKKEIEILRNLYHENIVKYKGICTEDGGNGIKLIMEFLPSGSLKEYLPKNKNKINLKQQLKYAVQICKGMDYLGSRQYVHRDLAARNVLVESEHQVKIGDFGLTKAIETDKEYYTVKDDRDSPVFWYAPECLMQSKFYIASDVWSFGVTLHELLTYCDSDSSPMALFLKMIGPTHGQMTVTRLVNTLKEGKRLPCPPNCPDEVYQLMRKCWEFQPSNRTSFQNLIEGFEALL

For IFNαR2 (pY269), the dissociation constant Kd (commonly a measure of binding affinity in units of concentration) in assay [1] is 2650 nM. The same measure, in the same setting: the value for IL-2Rβ (pY338) was 964 nM; that for IL-2Rβ (pY355) was 614 nM. Same read-out and setting: as for IL-2Rβ (pY392), the figure is 1030 nM.

For the substance IL-2Rβ (pY510), in assay [1], the Kd was 209 nM. In the case of “human SOCS1 (residues 53-211) in complex with Elongins B and C (from UniProt O15524 53-211; Q15370 1-118; Q15369 17-112)”, the IC50 of inhibition of the JAK1 kinase domain phosphorylating a STAT5b-derived peptide (in vitro kinase assay) in assay [2] is 30 nM.

Values taken from publication PMC5908791.
